Publication PMC10397247

Legend:
Assay in all cases: two-hybrid library CCmax;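 note: natural log of median RNA to DNA barcode read ratio; higher means stronger binding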
4H3625-AA = molecular target: T1, 4H3625-AA; settings: mean of both orientations
T1 chain: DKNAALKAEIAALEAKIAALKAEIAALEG

O14-AA = molecular target: T2, O14-AA; settings: mean of both orientations
T2 chain: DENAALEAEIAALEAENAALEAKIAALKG

4H510-AA = molecular target: T3, 4H510-AA; settings: mean of both orientations
T3 chain: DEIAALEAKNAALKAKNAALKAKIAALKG

O11-AA = molecular target: T4, O11-AA; settings: mean of both orientations
T4 chain: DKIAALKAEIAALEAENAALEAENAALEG

4H_GCN4 = molecular target: 4H_GCN4
4H_GCN4, sequence (chain, as listed by the source): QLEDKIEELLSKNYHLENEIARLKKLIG

4H_BCR = molecular target: T5, 4H_BCR; settings: mean of both orientations
T5 chain: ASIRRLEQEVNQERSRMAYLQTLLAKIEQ

4H43-AA = molecular target: T6, 4H43-AA; settings: mean of both orientations
T6 chain: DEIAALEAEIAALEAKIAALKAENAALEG

4H3049-AA = molecular target: T7, 4H3049-AA; settings: mean of both orientations
T7 chain: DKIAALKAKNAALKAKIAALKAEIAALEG

O13-AA = molecular target: T8, O13-AA; settings: mean of both orientations
T8 chain: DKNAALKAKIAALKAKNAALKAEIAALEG

4H451-AA = molecular target: T9, 4H451-AA; settings: mean of both orientations
T9 chain: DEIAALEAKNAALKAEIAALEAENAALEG

4H3587-AA = molecular target: T10, 4H3587-AA; settings: mean of both orientations
T10 chain: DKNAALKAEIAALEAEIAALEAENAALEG

4H4038-AA = molecular target: T11, 4H4038-AA; settings: mean of both orientations
T11 chain: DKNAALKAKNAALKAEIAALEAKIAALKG

4H_APH = molecular target: T12, 4H_APH; settings: mean of both orientations
T12 chain: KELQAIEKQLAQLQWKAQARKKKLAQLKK

4H3905-AA = molecular target: T13, 4H3905-AA; settings: mean of both orientations
T13 chain: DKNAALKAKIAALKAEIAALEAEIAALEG

4H384-AA = molecular target: T14, 4H384-AA; settings: mean of both orientations
T14 chain: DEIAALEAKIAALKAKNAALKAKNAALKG

GCN2_T = settings: mean of both orientations
4H3590-AA = molecular target: T15, 4H3590-AA; settings: mean of both orientations
T15 chain: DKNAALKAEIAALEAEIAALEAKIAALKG

4H2888-AA = molecular target: T16, 4H2888-AA
T16 chain: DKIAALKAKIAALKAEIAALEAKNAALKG

4H337-AA = molecular target: T17, 4H337-AA; settings: mean of both orientations
T17 chain: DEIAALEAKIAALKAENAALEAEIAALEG

O3-AA = molecular target: T18, O3-AA
T18 chain: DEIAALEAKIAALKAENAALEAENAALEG

4H2536-AA = molecular target: T19, 4H2536-AA
T19 chain: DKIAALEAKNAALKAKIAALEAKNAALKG

4H2608-AA = molecular target: T20, 4H2608-AA; settings: mean of both orientations
T20 chain: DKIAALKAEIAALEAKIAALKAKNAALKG

4H2614-AA = molecular target: T21, 4H2614-AA; settings: mean of both orientations
T21 chain: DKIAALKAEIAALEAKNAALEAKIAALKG

4H662-AA = molecular target: T22, 4H662-AA; settings: mean of both orientations
T22 chain: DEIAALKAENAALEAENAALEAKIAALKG

4H481-AA = molecular target: T23, 4H481-AA; settings: mean of both orientations
T23 chain: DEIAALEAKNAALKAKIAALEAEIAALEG

4H3922-AA = molecular target: T24, 4H3922-AA; settings: mean of both orientations
T24 chain: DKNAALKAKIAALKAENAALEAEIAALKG

4H3605-AA = molecular target: T25, 4H3605-AA; settings: mean of both orientations
T25 chain: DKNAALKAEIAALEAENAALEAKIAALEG

4H2935-AA = molecular target: T26, 4H2935-AA; settings: mean of both orientations
T26 chain: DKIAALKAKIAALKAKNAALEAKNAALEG

4H327-AA = molecular target: T27, 4H327-AA; settings: mean of both orientations
T27 chain: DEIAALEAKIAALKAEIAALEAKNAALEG

4H55-AA = molecular target: T28, 4H55-AA; settings: mean of both orientations
T28 chain: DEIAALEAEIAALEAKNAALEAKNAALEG

4H369-AA = molecular target: T29, 4H369-AA
T29 chain: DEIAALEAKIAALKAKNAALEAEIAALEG

4H4033-AA = molecular target: T30, 4H4033-AA; settings: mean of both orientations
T30 chain: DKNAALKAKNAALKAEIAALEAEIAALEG

4H3664-AA = molecular target: T31, 4H3664-AA; settings: mean of both orientations
T31 chain: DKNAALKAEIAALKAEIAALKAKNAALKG

4H2726-AA = molecular target: T32, 4H2726-AA; settings: mean of both orientations
T32 chain: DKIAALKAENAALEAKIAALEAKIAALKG

B1: 4H2888-AA (peptide)
chain: DKIAALKAKIAALKAEIAALEAKNAALKG
4H3625-AA
  interaction score: 1.63
O14-AA
  interaction score: 1.71
4H510-AA
  interaction score: -1.56
O11-AA
  interaction score: 0.766
4H_GCN4
  interaction score: -1.53
4H_BCR
  interaction score: -2.06
4H43-AA
  interaction score: 1.89
4H3049-AA
  interaction score: -0.982
O13-AA
  interaction score: -0.966
4H451-AA
  interaction score: -0.857
4H3587-AA
  interaction score: 1.25
4H4038-AA
  interaction score: 0.103
4H_APH
  interaction score: -2.17
4H3905-AA
  interaction score: 1.91
4H384-AA
  interaction score: -0.941
GCN2_T
  interaction score: -1.24
4H3590-AA
  interaction score: 2.23
4H2888-AA
  interaction score: 1.12
4H337-AA
  interaction score: 1.21

B2: 4H2536-AA (peptide)
chain: DKIAALEAKNAALKAKIAALEAKNAALKG
O3-AA
  interaction score: -1.65
4H3625-AA
  interaction score: -1.16
4H2536-AA
  interaction score: -0.663
4H2608-AA
  interaction score: -0.457
4H2614-AA
  interaction score: -1.61
4H662-AA
  interaction score: -1.33
4H481-AA
  interaction score: -0.0556
4H3922-AA
  interaction score: 0.635
4H3605-AA
  interaction score: 1.29
4H2935-AA
  interaction score: -1.66
4H327-AA
  interaction score: -1.02
4H55-AA
  interaction score: -1.17
4H369-AA
  interaction score: 0.0403
4H4033-AA
  interaction score: -1.47
4H3664-AA
  interaction score: -1.51
4H2726-AA
  interaction score: 1.39
